Substrate in this data set: CC(=O)C(=O)O
As to the kind of experiment: purified protein. The data set is classed as biochemical, Bacillus subtilis. The following applies: 50 mM phosphate pH 6.5, 30 °C, no FBP, co-substrate NADH (general LDH assay).

Where a chain is given by its changes, count along the chain named. Numbers in names are those of the source.

B1: L-LDH of B. subtilis (BsLDH) (Bacillus subtilis subsp. subtilis str. 168) (protein)
chain: MNKHVNKVALIGAGFVGSSYAFALINQGITDELVVIDVNKEKAMGDVMDLNHGKAFAPQPVKTSYGTYEDCKDADIVCICAGANQKPGETRLELVEKNLKIFKGIVSEVMASGFDGIFLVATNPVDILTYATWKFSGLPKERVIGSGTTLDSARFRFMLSEYFGAAPQNVHAHIIGEHGDTELPVWSHANVGGVPVSELVEKNDAYKQEELDQIVDDVKNAAYHIIEKKGATYYGVAMSLARITKAILHNENSILTVSTYLDGQYGADDVYIGVPAVVNRGGIAGITELNLNEKEKEQFLHSAGVLKNILKPHFAEQKVN
notes: codon-optimized gene, pET28b+ NdeI/HindIII, N-terminal His-tag (removal not mentioned), E. coli BL21(DE3), HisTrap-purified
In the case of B1, the Km was found to be 4.34 ± 1.24 mM.

B2: L-LDH of B. subtilis (BsLDH) (Bacillus subtilis subsp. subtilis str. 168; V38R) (protein)
chain: B1 chain with V38R
notes: as for B1
Take B2: the Km was determined as 4.00 ± 0.50 mM.

Usually Km stands for the concentration of substrate that gives half-maximal velocity.

Values taken from article PMC4078008, “Exploring metabolic engineering design principles for the photosynthetic production of lactic acid by Synechocystis sp. PCC6803” (Biotechnology for Biofuels, 2014).
